Results: patent US11453711B2, “Fusion proteins of GLP-1 and GDF15 and conjugates thereof” (BEIJING QL BIOPHARMACEUTICAL CO., LTD., priority 2019, dated 2022)
Where a chain is given by its changes, count along the chain named.

B1: MLC007: fusion polypeptide SEQ ID NO: 254 conjugated with Moiety A at 1K of Linker (conjugate)
chain: HGEGTFTSDVSSYLEEQAAREFIAWLVRGGGKQEPGQEPGQEPGQEPGQEPGQEPGQEPGQEPGAQPGAQPARQGDHCPLGPGRCCRLHTVRASLEDLGWADWVLSPREVQVTMCIGACPSQFRAANLHAQIKTSLHRLRPDTVPAPCCVPASYNPMVLIQRTDTGVSLQTYDDLLARDCHCI
modifications: Moiety A conjugated at linker K1
B2: MLC009: fusion polypeptide SEQ ID NO: 256 conjugated with Moiety A at 15K of Linker (conjugate)
chain: B1 chain with K32G, E46K
modifications: Moiety A conjugated at linker K15
B3: MLC013: fusion polypeptide SEQ ID NO: 260 conjugated with Moiety A at 1K of Linker (conjugate)
chain: HGEGTFTSDVSSYLEEQAAREFIAWLVRGGGKQEPGAQPGQEPGAQPGQEPGAQPGQEPGAQPGQEPGAQPGQEPGAQPGAQPGAQPGAQPGAQPGAQPGAQPGAQPGAQPARQGDHCPLGPGRCCRLHTVRASLEDLGWADWVLSPREVQVTMCIGACPSQFRAANLHAQIKTSLHRLRPDTVPAPCCVPASYNPMVLIQRTDTGVSLQTYDDLLARDCHCI
modifications: Moiety A conjugated at linker K1
B4: MLC090: fusion polypeptide SEQ ID NO: 379 conjugated with Moiety C at 39C of Linker (conjugate)
chain: HGEGTFTSDVSSYLEEQAAKEFIAWLVRGGGGAQPGAQPGAQPGAQPGAQPGAQPGAQPGAQPGQEPGQCPGQEPGAQPGQEPGAQPGQEPGAQPGQEPGAQPGQEPGAQPARQGDHCPLGPGRCCRLHTVRASLEDLGWADWVLSPREVQVTMCIGACPSQFRAANLHAQIKTSLHRLKPDTVPAPCCVPASYNPMVLIQKTDTGVSLQTYDDLLAKDCHCI
modifications: Moiety C conjugated at linker Cys39
B5: MLC002: fusion polypeptide SEQ ID NO: 249 conjugated with Moiety A at 26K of GLP-1 (conjugate)
chain: B1 chain with R20K, K32G
modifications: Moiety A conjugated at K26
B6: MLC005: fusion polypeptide SEQ ID NO: 252 conjugated with Moiety A at 12K of Linker (conjugate)
chain: B1 chain with K32G, P43K
modifications: Moiety A conjugated at linker K12
B7: MLC006: fusion polypeptide SEQ ID NO: 253 conjugated with Moiety A at 36K of GLP-1 (conjugate)
chain: B1 chain with G30K, K32G
modifications: Moiety A conjugated at K36

How the values were obtained:
[1] = Body weight and food intake in lean C57BL/6 mice, lysine conjugated compounds, 15 nmol/kg daily sc 14 days; assay type: in vivo; conditions: for BW reduction: 15 nmol/kg daily sc 14 days, versus Semaglutide; for Body weight reduction at 15 nmol/kg (% reduction compared to vehicle)(Day11) / Cumulative food intake reduction at 15 nmol/kg (% reduction compared to vehicle)(Day11): C57 mice, 15 nmol/kg daily sc
Experimental: FIGS. 1A-1F show In vivo activities of fusion proteins. To evaluate the body weight and food intake effects of the fusion proteins, 10 week old male C57BL/6J mice were dosed everyday subcutaneously with 15 nmol/kg protein for 14 days. Food intake and body weight were measured daily. FIGS. 1A and 1B show body weight loss upon protein treatments from Day1 to Day15. […] FIGS. 1D and 1E show cumulative food intake with protein treatments from Day1 to Day15. […] Vehicle: 1.42 mg/mL disodium phosphate dihydrate, 14 mg/mL propylene glycol pH7.4. Data are expressed as mean values and standard error (SEM) for FIGS. 1A, 1B and 1C. n=5 for each treatment group. For FIGS. 1D, 1E and 1F, a pooled food intake was measured for each treatment group.
(§1) 10 week old male C57BL/6 mice were injected everyday subcutaneously with 15 nmol/kg of the fusion protein conjugates (i.e., MLC002, MLC 004, MLC 005, MLC 006, MLC 007, MLC 008, and MLC 009) for 14 days. Food intake and body weight were measured daily and five animals were used for each treatment group. Body weight (BW) was monitored for each individual animal, but food intake for each group animals was measured together. Day 1 and Day 14 are first day and last day of molecule dosage. % BW loss=100*(BW on Day n-BW on Day 1)/(BW on Day 1). Cumulative food intake on Day n represents sum of food intake from Day 1 to Day n. Data are indicated as mean values and standard error (SEM) or pooled values. Statistical analysis was performed by One-way ANOVA. Body weight reduction on Day 11 is calculated by −1*(% BW loss−% BW loss of vehicle group); Cumulative food intake reduction is calculated by −100*(cumulative food intake-cumulative food intake of vehicle)/cumulative food intake of vehicle.

[2] = Pharmacokinetic measurement in mouse, single sc dose 30 nmol/kg, plasma ELISA; conditions: for Cmax: read-out: Cmax (nmol/L), single sc dose 30 nmol/kg; for AUC0-24 h / Terminal t1/2 / Tmax: single sc dose 30 nmol/kg
Experimental: Each fusion protein was injected subcutaneously into C57BL/6 mice (n=3/group) once and plasma samples were collected at designed time points and analyzed by ELISA method. Plasma concentrations are indicated as mean values and standard error (SEM).
6-8 week old male C57BL/6 mice were administrated in a single subcutaneous dose of 30 nmol/kg of the fusion protein conjugates or unconjugated fusion proteins (i.e., MLC002, MLC004, MLC005, MLC006, MLC007, MLC008, MLC009, MLC013, MLC017, MLC047, MLC074, MLC075, MLC089, MLC093, MLC003 and MLC019) (n=3/group). Plasma samples were collected pre-dose (−5 min), 0.5 hr, 1 hr, 2 hr, 4 hr, 6 hr, 8 hr, 12 hr, 24 hr, 48 hr and 72 hr after the injection. The concentrations of the fusion protein conjugates in the plasma were measured by an ELISA assay which has immunoreactivity towards both GDF15 and intact N-terminal of GLP-1. Based on the graph showing plasma concentration of each protein versus time after subcutaneous injection, the pharmacokinetic parameters (including Tmax, Cmax, T1/2, AUC) were calculated by WinNonlin software.

[3] = Body weight and food intake in C57BL/6 mice, fusion protein conjugates, 30 nmol/kg daily 10 days; assay type: in vivo
Experimental: as §1
Data were calculated in the same way as described above. Day 1 and Day 10 are first day and last day of the administration.
MLC014 was used as a negative control. MLC014 has an amino acid sequence of SEQ ID NO: 261, which contains a linker fused to the N terminal of GDF15, with a CRM conjugated to the lysine residue in the linker. Tirzepatide was also used as a control.

[4] = PK study in non-human primates, single sc dose 5 nmol/kg, plasma ELISA; conditions: monkey, single sc dose 5 nmol/kg; for Cmax: read-out: Cmax (nmol/L)
Experimental: Plasma samples were collected pre-dose (−5 min), 2 hr, 4 hr, 6 hr, 8 hr, 24 hr, 48 hr, 72 hr, 96 hr, 120 hr, 144 hr, 216 hr, 288 hr, 360 hr, 432 hr and 504 hr after the injection. The concentrations of the fusion protein conjugates in the plasma were measured by an ELISA assay which has immunoreactivity towards both GDF15 and intact N-terminal of GLP-1. Based on the graph showing plasma concentration of each protein versus time after subcutaneous injection, the pharmacokinetic parameters (including Tmax, Cmax, T1/2, AUC) were calculated by WinNonlin software.

[5] = Efficacy in db/db mice: body weight, food intake, glucose, biomarkers, daily sc 14 days; assay type: in vivo
Experimental: (§2) FIGS. 4A-4D show In vivo efficacy in db/db mice. To evaluate the body weight, food intake and glucose effects of the fusion proteins, 8 week old male db/db mice were dosed everyday subcutaneously with 30 nmol/kg protein for 14 days. […] Compared to Vehicle control: ***, p<0.001. Data are expressed as mean values and standard error (SEM) for FIGS. 4A, 4B and 4D. n=5 for each treatment group. For FIG. 4C, a pooled food intake was measured for each treatment group.
FIGS. 5A-5F show In vivo efficacy in db/db mice. To evaluate the body weight, food intake and glucose effects of the fusion proteins, 8 week old male db/db mice were dosed everyday subcutaneously with different concentrations of proteins for 14 days. FIGS. 5A and 5B show body weight loss upon protein treatments from Day1 to Day15. […] Compared to Vehicle control: ***, p<0.001; **, p<0.01; *, p<0.05; ns, non-statistically significant; FIGS. 5D and 5E show cumulative food intake with protein treatments from Day1 to Day15. […] Compared to Vehicle control: ***, p<0.001**, p<0.01; *, p<0.05; ns, non-statistically significant. Data are expressed as mean values and standard error (SEM) for FIGS. 5A, 5B, 5C and 5F. n=5 for each treatment group. For FIGS. 5D and 5E, a pooled food intake was measured for each treatment group.
as §2, with “8A-8I” for “4A-4D”, “different concentrations of proteins” for “30 nmol/kg protein”, “FIGS. 8D-8F show body weight loss upon dose titrations of fusion protein conjugates. […]” for “Compared to Vehicle control: ***, p<0.001.”, “8A” for “4A, 4B”, “8C-I.” for “4D.”, “8B,” for “4C,”
Selected fusion protein conjugates are assessed in disease animal models (DIO mice, db/db mice, etc.) to determine body weight, food intake, glucose efficacy with dose responses. Some biomarkers are also measured, including fasting insulin, plasma triglyceride, cholesterol, liver triglyceride, and inflammatory biomarkers (ALT, AST and CRP).
8 week old male db/db mice were injected everyday subcutaneously with designated proteins for 14 days. Age matched lean mice were used as control. Food intake and body weight were measured daily and five animals were used for each treatment group. Fasting glucose were tested on designated days as shown in each figure. Body weight was monitored for each individual animal, but food intake for each group animals was measured together. Day 1 and Day 14 are first day and last day of molecule dosage. % BW loss=100*(BW on Day n-BW on Day 1)/(BW on Day 1). Cumulative food intake on Day n represents sum of food intake from Day 1 to Day n. Terminal blood was collected and EDTA-2K plasma was prepared and frozen at −80° C. for biomarker measurement. Liver was also collected and frozen in liquid nitrogen and store at −80° C. Data are indicated as mean values and standard error (SEM) or pooled values. Statistical analysis was performed by One-way ANOVA.

[6] = 30 nmol/kg daily 14 days, FIG. 4, versus Semaglutide
[7] = 30 nmol/kg, FIG. 5A-E, versus Semaglutide, Tirzepatide and MLC014
[8] = 30 nmol/kg, FIG. 8A-C, versus Semaglutide, Tirzepatide and MLC014

| Molecule | Body weight reduction at 15 nmol/kg (% reduction compared to vehicle)(Day11) [1] | Cumulative food intake reduction at 15 nmol/kg (% reduction compared to vehicle)(Day11) [1] | Cmax [2] | AUC0-24 h [2] | Terminal t1/2 [2] | Tmax [2] | also measured |
| --- | --- | --- | --- | --- | --- | --- | --- |
| B1 | 11.3% | 21.8% | 10.4 nmol/L | 0.0638 µM·h | 4.7 h | 0.5 h | BW reduction [1]: statistically significantly enhanced BW loss efficacy than Semaglutide |
| B2 | 14.6% | 23.9% | 17 nmol/L | 0.1578 µM·h | 4.2 h | 3.3 h | BW reduction [1]: statistically significantly enhanced BW loss efficacy than Semaglutide |
| B3 |  |  | 38.5 nmol/L | 0.5035 µM·h | 8.9 h | 3.3 h | Body weight reduction at 30 nmol/kg (% reduction compared to vehicle)(Day11) [3]: 21.4%; Cumulative food intake reduction at 30 nmol/kg (% reduction compared to vehicle)(Day11) [3]: 45.2%; AUC0-96 h [4]: 1.435 µM·h; Terminal t1/2 [4]: 26 h; Tmax [4]: 7 h; Cmax [4]: 41.3 nmol/L; body weight loss [5, 6]: sustainable and much better effect; food intake suppression [5, 6]: sustainable and much better effect; glucose lowering effect ([5]; 30 nmol/kg daily 14 days, FIG. 4D): comparable glucose lowering effect to Semaglutide; body weight loss [5, 7]: sustainable and much better effect; food intake suppression [5, 7]: sustainable and much better effect; efficacy ([5]; FIG. 5 study): better efficacy than Semaglutide and GDF15 derivative (MLC014) |
| B4 |  |  |  |  |  |  | Body weight reduction at 30 nmol/kg (% reduction compared to vehicle)(Day11) [3]: 24.5%; Cumulative food intake reduction at 30 nmol/kg (% reduction compared to vehicle)(Day11) [3]: 44.4%; AUC0-96 h [4]: 1.987 µM·h; Terminal t1/2 [4]: 40 h; Tmax [4]: 7 h; Cmax [4]: 36 nmol/L; body weight loss [5, 8]: more body weight loss, food intake suppression and glycemic control; food intake suppression [5, 8]: more body weight loss, food intake suppression and glycemic control; glycemic control [5, 8]: more body weight loss, food intake suppression and glycemic control; efficacy ([5]; FIG. 8 study): better efficacy than Semaglutide and GDF15 derivative (MLC014) |
| B5 | 5.0% | 7.5% | 4.6 nmol/L | 0.0362 µM·h | 5.0 h | 1.2 h |  |
| B6 | 12.6% | 9.1% | 16.7 nmol/L | 0.1172 µM·h | 4.2 h | 2.0 h |  |
| B7 | 9.3% | 23.0% | 9.9 nmol/L | 0.0719 µM·h | 4.4 h | 2.7 h |  |
